In patent US20240261333A1, “NOVEL TARGETS FOR ENHANCING ANTI-TUMOR IMMUNITY” (THE BROAD INSTITUTE, INC., priority 2021, published 2024):

Experiments:
DDX20 = DDX20 (UniProt Q9UHI6); experiment: co-IP, anti-FLAG, C-FLAG B3GNT2 cell lysate, mass spectrometry
DNAJA2 = DNAJA2 (UniProt O60884); experiment: as above
HIST1H1E = HIST1H1E (UniProt P10412); experiment: as above
HNRNPU = HNRNPU (UniProt Q00839); experiment: as above
ITGB3 = ITGB3 (UniProt P05106); experiment: as above
LIMA1 = LIMA1 (UniProt Q9UHB6); experiment: as above
MTCH2 = MTCH2 (UniProt Q9Y6C9); experiment: as above
MTDH = MTDH (UniProt Q86UE4); experiment: as above
NCCRP1 = NCCRP1 (UniProt Q6ZVX7); experiment: as above
PBXIP1 = PBXIP1 (UniProt Q96AQ6); experiment: as above
PSMA7 = PSMA7 (UniProt O14818); experiment: as above
RPL19 = RPL19 (UniProt P84098); experiment: as above
RPL22 = RPL22 (UniProt P35268); experiment: as above
RPL27A = RPL27A (UniProt P46776); experiment: as above
RPL3 = RPL3 (UniProt P39023); experiment: as above
RPL35 = RPL35 (UniProt P42766); experiment: as above
RPL37A = RPL37A (UniProt P61513); experiment: as above
RPS8 = RPS8 (UniProt P62241); experiment: as above
SRSF1 = SRSF1 (UniProt Q07955); experiment: as above
SRSF3 = SRSF3 (UniProt P84103); experiment: as above
TAGLN = TAGLN (UniProt Q01995); experiment: as above
TNKS1BP1 = TNKS1BP1 (UniProt Q9C0C2); experiment: as above
TXN = TXN (UniProt P10599); experiment: as above
ARF4 (human) = ARF4 (human) (UniProt P18085); experiment: co-IP with control IgG, mass spectrometry; lysate of cells with C-FLAG B3GNT2
ARHGEF2 (human) = ARHGEF2 (human) (UniProt Q92974); experiment: as above
EPRS (human) = EPRS (human) (UniProt P07814); experiment: as above
HADHA (human) = HADHA (human) (UniProt P40939); experiment: as above
MAGT1 (human) = MAGT1 (human) (UniProt Q9H0U3); experiment: as above
MARS (human) = MARS (human) (UniProt P56192); experiment: as above
MSN (human) = MSN (human) (UniProt P26038); experiment: as above
MYO1C (human) = MYO1C (human) (UniProt O00159); experiment: as above
NPM1 (human) = NPM1 (human) (UniProt P06748); experiment: as above
RPL26 (human) = RPL26 (human) (UniProt P61254); experiment: as above
RPL32 (human) = RPL32 (human) (UniProt P62910); experiment: as above
RPL9 (human) = RPL9 (human) (UniProt P32969); experiment: as above
RPS27 (human) = RPS27 (human) (UniProt P42677); experiment: as above
RRP12 (human) = RRP12 (human) (UniProt Q5JTH9); experiment: as above
SLC25A5 (human) = SLC25A5 (human) (UniProt P05141); experiment: as above
UGGT1 (human) = UGGT1 (human) (UniProt Q9NYU2); experiment: as above

TNKS1BP1, sequence (Q9C0C2 whole entry): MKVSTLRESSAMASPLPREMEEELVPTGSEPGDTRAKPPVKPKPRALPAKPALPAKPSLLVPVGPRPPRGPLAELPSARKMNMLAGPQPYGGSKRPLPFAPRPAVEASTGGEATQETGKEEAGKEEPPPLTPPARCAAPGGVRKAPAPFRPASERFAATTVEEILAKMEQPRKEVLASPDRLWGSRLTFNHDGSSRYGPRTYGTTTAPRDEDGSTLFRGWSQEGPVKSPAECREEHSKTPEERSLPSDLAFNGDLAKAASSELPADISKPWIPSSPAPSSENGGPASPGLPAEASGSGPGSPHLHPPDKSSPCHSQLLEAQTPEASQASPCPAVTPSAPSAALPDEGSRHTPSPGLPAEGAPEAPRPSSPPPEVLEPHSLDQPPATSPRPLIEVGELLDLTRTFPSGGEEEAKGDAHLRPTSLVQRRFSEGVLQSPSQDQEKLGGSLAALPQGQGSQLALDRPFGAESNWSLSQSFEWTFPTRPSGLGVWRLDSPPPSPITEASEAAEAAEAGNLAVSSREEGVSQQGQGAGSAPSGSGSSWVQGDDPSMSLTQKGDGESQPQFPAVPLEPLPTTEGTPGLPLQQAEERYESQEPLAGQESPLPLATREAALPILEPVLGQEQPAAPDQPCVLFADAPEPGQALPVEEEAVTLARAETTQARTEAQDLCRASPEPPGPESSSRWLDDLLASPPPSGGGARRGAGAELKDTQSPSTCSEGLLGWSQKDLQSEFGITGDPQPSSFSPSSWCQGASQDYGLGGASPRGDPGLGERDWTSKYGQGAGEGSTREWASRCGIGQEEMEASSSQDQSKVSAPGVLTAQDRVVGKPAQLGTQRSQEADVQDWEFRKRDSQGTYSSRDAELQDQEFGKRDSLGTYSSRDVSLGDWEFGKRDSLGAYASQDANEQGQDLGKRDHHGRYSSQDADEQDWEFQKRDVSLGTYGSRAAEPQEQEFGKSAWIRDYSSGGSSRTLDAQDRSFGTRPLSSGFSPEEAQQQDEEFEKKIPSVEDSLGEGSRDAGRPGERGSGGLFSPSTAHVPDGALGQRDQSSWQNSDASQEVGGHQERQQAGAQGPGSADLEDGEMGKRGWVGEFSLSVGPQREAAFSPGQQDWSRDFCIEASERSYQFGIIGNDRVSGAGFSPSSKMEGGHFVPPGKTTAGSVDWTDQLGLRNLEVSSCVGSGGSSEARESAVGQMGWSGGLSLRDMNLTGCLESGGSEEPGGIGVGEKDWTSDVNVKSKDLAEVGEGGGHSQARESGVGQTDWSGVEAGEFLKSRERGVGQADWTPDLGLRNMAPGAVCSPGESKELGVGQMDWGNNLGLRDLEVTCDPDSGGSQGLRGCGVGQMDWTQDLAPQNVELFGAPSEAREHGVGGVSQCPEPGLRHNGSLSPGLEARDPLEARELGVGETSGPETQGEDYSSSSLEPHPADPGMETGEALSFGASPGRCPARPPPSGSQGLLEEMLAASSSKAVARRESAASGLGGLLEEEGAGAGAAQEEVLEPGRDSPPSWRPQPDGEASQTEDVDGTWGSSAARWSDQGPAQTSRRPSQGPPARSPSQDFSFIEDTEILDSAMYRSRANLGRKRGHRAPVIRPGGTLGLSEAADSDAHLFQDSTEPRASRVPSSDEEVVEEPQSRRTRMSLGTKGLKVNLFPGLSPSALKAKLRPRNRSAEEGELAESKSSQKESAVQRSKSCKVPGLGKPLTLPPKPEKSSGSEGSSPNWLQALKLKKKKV
NCCRP1, sequence (Q6ZVX7 whole entry): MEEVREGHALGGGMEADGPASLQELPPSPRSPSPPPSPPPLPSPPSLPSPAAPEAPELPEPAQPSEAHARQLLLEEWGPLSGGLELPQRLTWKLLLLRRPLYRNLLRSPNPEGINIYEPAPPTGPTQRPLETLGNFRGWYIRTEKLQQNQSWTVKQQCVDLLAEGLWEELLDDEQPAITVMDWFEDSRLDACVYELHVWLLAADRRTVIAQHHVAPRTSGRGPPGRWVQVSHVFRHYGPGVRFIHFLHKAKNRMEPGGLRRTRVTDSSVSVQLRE
DNAJA2, sequence (O60884 1-409 limits assumed): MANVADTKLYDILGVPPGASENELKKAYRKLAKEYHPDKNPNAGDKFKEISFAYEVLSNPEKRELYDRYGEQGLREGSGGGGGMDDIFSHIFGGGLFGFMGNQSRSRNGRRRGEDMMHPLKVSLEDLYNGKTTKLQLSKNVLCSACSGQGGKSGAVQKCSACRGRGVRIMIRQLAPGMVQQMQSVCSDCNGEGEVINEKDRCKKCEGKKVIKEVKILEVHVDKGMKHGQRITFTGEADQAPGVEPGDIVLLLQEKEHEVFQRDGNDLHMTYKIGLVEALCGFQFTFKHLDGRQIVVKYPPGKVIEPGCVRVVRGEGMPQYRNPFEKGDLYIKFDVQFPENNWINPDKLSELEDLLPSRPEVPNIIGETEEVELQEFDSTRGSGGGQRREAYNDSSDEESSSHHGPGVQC
SRSF1, sequence (Q07955 2-248 limits assumed): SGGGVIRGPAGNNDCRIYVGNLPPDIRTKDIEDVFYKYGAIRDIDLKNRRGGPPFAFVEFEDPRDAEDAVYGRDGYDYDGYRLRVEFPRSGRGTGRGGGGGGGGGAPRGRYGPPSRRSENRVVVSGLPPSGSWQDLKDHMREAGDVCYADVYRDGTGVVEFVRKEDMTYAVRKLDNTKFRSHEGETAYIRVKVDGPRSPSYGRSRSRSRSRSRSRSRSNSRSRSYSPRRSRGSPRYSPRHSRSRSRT
NPM1 (human), sequence (P06748 whole entry): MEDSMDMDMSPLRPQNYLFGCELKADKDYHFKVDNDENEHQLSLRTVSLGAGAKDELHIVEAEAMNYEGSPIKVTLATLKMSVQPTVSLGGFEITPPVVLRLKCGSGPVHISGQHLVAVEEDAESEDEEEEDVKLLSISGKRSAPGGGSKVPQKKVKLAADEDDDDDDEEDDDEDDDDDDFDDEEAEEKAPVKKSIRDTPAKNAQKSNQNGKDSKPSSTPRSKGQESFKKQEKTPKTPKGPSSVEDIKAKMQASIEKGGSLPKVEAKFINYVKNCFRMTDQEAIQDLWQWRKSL
PSMA7, sequence (O14818 whole entry): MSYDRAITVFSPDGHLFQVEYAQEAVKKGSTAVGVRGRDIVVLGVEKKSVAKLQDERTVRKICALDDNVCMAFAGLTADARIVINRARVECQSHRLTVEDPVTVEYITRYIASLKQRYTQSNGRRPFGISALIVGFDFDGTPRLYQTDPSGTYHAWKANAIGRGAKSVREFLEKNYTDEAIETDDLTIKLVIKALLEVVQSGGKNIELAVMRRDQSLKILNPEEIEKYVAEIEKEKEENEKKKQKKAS
MYO1C (human), sequence (O00159 other isoform, or with tags, fused parts or gaps limits assumed): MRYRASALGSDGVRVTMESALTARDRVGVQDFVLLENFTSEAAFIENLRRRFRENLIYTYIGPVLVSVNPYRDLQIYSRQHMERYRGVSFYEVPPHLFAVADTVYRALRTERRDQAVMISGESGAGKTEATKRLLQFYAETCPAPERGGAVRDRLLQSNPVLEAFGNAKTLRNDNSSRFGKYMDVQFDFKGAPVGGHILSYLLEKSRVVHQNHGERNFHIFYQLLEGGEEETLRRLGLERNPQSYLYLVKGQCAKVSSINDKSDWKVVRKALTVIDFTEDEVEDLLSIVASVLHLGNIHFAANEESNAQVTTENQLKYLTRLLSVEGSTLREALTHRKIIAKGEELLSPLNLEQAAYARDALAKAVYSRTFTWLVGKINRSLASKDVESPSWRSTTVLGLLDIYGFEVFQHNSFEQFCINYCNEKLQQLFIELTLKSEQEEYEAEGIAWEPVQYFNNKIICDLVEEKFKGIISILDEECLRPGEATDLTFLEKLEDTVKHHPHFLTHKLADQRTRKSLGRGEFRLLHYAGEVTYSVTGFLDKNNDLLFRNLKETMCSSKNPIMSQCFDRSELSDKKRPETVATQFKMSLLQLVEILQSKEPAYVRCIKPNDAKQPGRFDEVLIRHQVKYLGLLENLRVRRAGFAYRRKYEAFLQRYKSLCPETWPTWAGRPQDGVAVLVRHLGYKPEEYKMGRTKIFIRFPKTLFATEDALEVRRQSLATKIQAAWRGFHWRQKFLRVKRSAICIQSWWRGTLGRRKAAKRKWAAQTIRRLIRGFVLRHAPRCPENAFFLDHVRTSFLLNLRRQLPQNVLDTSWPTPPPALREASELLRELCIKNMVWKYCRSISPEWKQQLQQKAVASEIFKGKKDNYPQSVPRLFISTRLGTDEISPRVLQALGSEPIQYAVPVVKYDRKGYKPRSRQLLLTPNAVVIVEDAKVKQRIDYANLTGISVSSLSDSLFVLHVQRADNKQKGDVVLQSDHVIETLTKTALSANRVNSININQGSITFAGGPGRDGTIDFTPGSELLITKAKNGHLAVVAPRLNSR
SRSF3, sequence (P84103 whole entry): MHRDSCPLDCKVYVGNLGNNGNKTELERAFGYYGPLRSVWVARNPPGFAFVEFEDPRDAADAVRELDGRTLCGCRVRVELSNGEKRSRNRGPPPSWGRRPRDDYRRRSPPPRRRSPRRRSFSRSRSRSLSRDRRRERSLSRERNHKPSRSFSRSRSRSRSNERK
MAGT1 (human), sequence (Q9H0U3 30-335 limits assumed): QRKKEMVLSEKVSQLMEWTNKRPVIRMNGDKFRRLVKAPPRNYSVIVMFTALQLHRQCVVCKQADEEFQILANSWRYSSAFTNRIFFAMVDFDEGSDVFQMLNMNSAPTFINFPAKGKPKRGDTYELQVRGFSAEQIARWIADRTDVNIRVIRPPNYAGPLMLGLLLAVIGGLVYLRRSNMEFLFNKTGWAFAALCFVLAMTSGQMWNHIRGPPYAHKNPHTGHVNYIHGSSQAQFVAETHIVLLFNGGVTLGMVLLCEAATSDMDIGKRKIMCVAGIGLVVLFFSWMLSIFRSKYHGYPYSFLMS
TXN, sequence (P10599 2-105 limits assumed): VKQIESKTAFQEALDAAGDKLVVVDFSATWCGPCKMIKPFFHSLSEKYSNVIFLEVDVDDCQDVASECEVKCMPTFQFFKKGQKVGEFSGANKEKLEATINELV

C-terminal FLAG tagged B3GNT2 (from UniProt Q9NY97 1-397) (enzyme)
co-IP mass spectrometry count (DDX20): 6
co-IP mass spectrometry count (DNAJA2): 3
co-IP mass spectrometry count (HIST1H1E): 6
co-IP mass spectrometry count (HNRNPU): 12
co-IP mass spectrometry count (ITGB3): 3
co-IP mass spectrometry count (LIMA1): 2
co-IP mass spectrometry count (MTCH2): 2
co-IP mass spectrometry count (MTDH): 6
co-IP mass spectrometry count (NCCRP1): 4
co-IP mass spectrometry count (PBXIP1): 4
co-IP mass spectrometry count (PSMA7): 2
co-IP mass spectrometry count (RPL19): 11
co-IP mass spectrometry count (RPL22): 5
co-IP mass spectrometry count (RPL27A): 10
co-IP mass spectrometry count (RPL3): 25
co-IP mass spectrometry count (RPL35): 5
co-IP mass spectrometry count (RPL37A): 7
co-IP mass spectrometry count (RPS8): 17
co-IP mass spectrometry count (SRSF1): 9
co-IP mass spectrometry count (SRSF3): 7
co-IP mass spectrometry count (TAGLN): 3
co-IP mass spectrometry count (TNKS1BP1): 8
co-IP mass spectrometry count (TXN): 3

IgG control (Millipore Sigma 12-371) (antibody)
co-IP mass spectrometry count (ARF4 (human)): 0
co-IP mass spectrometry count (ARHGEF2 (human)): 0
co-IP mass spectrometry count (EPRS (human)): 0
co-IP mass spectrometry count (HADHA (human)): 0
co-IP mass spectrometry count (MAGT1 (human)): 0
co-IP mass spectrometry count (MARS (human)): 0
co-IP mass spectrometry count (MSN (human)): 0
co-IP mass spectrometry count (MYO1C (human)): 0
co-IP mass spectrometry count (NPM1 (human)): 0
co-IP mass spectrometry count (RPL26 (human)): 4
co-IP mass spectrometry count (RPL32 (human)): 0
co-IP mass spectrometry count (RPL9 (human)): 0
co-IP mass spectrometry count (RPS27 (human)): 0
co-IP mass spectrometry count (RRP12 (human)): 0
co-IP mass spectrometry count (SLC25A5 (human)): 3
co-IP mass spectrometry count (UGGT1 (human)): 0
